According to the supplement of paper PMC10126150:
± gives the standard deviation of the averaged measurements.

Tested on: ATP
Test: switch fluorescence ratio, 500 uM ATP over buffer (Cy3 cluster intensity, sum of 5 cycles each) (fold (ratio)); higher = stronger signal-on switching upon ATP binding; sequences stand for … in TCGTCGGCAGCGTCAGATGTGTATAAGAGACAGTTTTTTTTTTTTTTTTTTTTTTTTT…TC
Details: aptamer strand: ATP DNA aptamer (quencher-CACCTGGGGGAGTATTGCGGAGGAAGG + anchor), 100 nM annealed; ATP concentration: 500 uM
Procedure, shortened: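 Per cluster, summed Cy3 intensity from the target cycles was divided by that from the buffer cycles to give the fluorescence ratio, then averaged per switch-domain sequence. Clusters outside 100-1000 RFU were excluded. The Cy3-labelled switching-strand clusters, on a modified Illumina MiSeq flow-cell, were annealed to 100 nM quencher-labelled ATP aptamer and imaged in selection buffer, then after 15 min with 500 uM ATP at 22 °C, for five cycles with NaOH stripping and re-annealing between them.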
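Note: ATP exposure 15 min at 22 °C before imaging.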

Sequence | switch fluorescence ratio
CCGTGTGTCA | 1.03 ± 0.029
CCGTGTTTCT | 0.9916 ± 0.0033
CCGTTCTCGC | 1.31 ± 0.048
CCGTTGAGCT | 1.112 ± 0.01
CCGTTGGCCT | 1.042 ± 0.0065
CCGTTGTGCG | 1.02 ± 0.027
CCGTTGTGGT | 1.05 ± 0.068
CCGTTTAGAT | 1.01 ± 0.011
CCGTTTTAGC | 1.12 ± 0.12
CCGTTTTTGT | 0.9922 ± 0.006
CCTACGGTGG | 1.04 ± 0.04
CCTACTTGGC | 1.16 ± 0.05
CCTAGGCTTT | 1.117 ± 0.0063
CCTAGGTCAT | 1.12 ± 0.15
CCTATGCAGT | 5.33 ± 0.3
CCTATGGGGG | 1.49 ± 0.66
CCTATGTGCT | 1.038 ± 0.0059
CCTATTAGG | 1 ± 0.011
CCTCAGGGGC | 2.39 ± 0.57
CCTCATTTTT | 0.988 ± 0.0099
CCTCCAGGGT | 2.5 ± 0.92
CCTCGTAGGT | 1.07 ± 0.024
CCTCTCCGTA | 1.32 ± 0.083

Sequence | switch fluorescence ratio
CCTCTGGGGG | 1.32 ± 0.19
CCTGAGTTCG | 1.39 ± 0.21
CCTGCGTCTG | 1.9 ± 0.065
CCTGGAGTTA | 1.04 ± 0.1
CCTGGCGTCG | 1.005 ± 0.0083
CCTGGGGAGT | 1.04 ± 0.034
CCTGGGGATC | 1.15 ± 0.098
CCTGGGGCCA | 1.03 ± 0.038
CCTGGGGGTG | 1.14 ± 0.074
CCTGGGGGTT | 1.6 ± 0.79
CCTGGTCGAC | 0.986 ± 0.015
CCTGGTGAGG | 1.04 ± 0.072
CCTGGTGCAT | 2.15 ± 0.056
CCTGGTTGTG | 0.992 ± 0.029
CCTGTGAGTT | 0.986 ± 0.012
CCTGTTGGGA | 1.01 ± 0.037
CCTGTTTCTA | 1.17 ± 0.23
CCTGTTTGTA | 1.01 ± 0.066
CCTTACGGCA | 1.53 ± 0.068
CCTTACTTTT | 0.998 ± 0.036
CCTTATTAGG | 1.002 ± 0.0075
CCTTGCACG | 1.18 ± 0.22
CCTTGGCCGA | 1.17 ± 0.0041

Sequence | switch fluorescence ratio
CCTTGGGCTT | 1.04 ± 0.031
CCTTGGTACA | 1.03 ± 0.015
CCTTGGTGAG | 1.01 ± 0.014
CCTTTAGGTT | 1 ± 0.049
CCTTTCATGC | 1.65 ± 0.16
CCTTTGGCAG | 1.22 ± 0.06
CCTTTGTGAT | 1.499 ± 0.0089
CCTTTTATTC | 1.01 ± 0.03
CCTTTTCAGG | 1.03 ± 0.023
CCTTTTGCGC | 1.31 ± 0.012
CCTTTTGGTG | 1.38 ± 0.44
CCTTTTGTAC | 1.386 ± 0.011
CCTTTTTCTT | 1.04 ± 0.029
CCTTTTTGT | 0.993 ± 0.027
CGAAAAAGAT | 1.04 ± 0.079
CGAAAAGTTG | 1.01 ± 0.048
CGAAAGCTTG | 1.05 ± 0.02
CGAAAGTTTA | 1.008 ± 0.0021
CGAAATCCTT | 1.05 ± 0.039
CGAACGAAAA | 0.992 ± 0.04
CGAACGGGGG | 1 ± 0.032
CGAACTGGGT | 1.03 ± 0.028
CGAACTGTGG | 0.9673 ± 0.009

Sequence | switch fluorescence ratio
CGAACTTGGA | 0.9882 ± 0.0074
CGAAGATTTT | 1.05 ± 0.022
CGAAGGGACG | 1.05 ± 0.081
CGAAGGGGGA | 0.995 ± 0.021
CGAAGGTTTT | 1.02 ± 0.015
CGAAGTACAT | 1.16 ± 0.0019
CGAAGTAGAG | 1.029 ± 0.0064
CGAATAATCA | 0.982 ± 0.053
CGAATAGCGG | 0.9757 ± 0.002
CGAATATTAA | 0.994 ± 0.013
CGAATATTTG | 0.996 ± 0.026
CGAATCAATC | 2.51 ± 0.44
CGAATGTTCG | 0.998 ± 0.035
CGAATTAAAC | 0.99 ± 0.029
CGAATTTTTG | 0.982 ± 0.018
CGACAAAGCC | 1.28 ± 0.014
CGACGAAACT | 1.15 ± 0.021
CGACGAGGCT | 1.21 ± 0.024
CGACGGGCAG | 1.01 ± 0.042
CGACGTGGGA | 1.042 ± 0.0055
CGACGTGTGG | 1.02 ± 0.03
CGACTGTTTT | 1.02 ± 0.015
CGACTTACAT | 1.24 ± 0.057

Sequence | switch fluorescence ratio
CGAGAAAGAG | 0.983 ± 0.077
CGAGAAGTTT | 1.005 ± 0.0081
CGAGACCACA | 1.05 ± 0.043
CGAGACGGGG | 0.959 ± 0.042
CGAGAGCCAC | 1.13 ± 0.047
CGAGATGTGG | 1.02 ± 0.011
CGAGCATGTA | 1.168 ± 0.0052
CGAGCCTTGT | 1.01 ± 0.04
CGAGCGGGGG | 1.01 ± 0.047
CGAGCTGCAT | 1.08 ± 0.011
CGAGGCCTGG | 1 ± 0.011
CGAGGCTCCG | 1.05 ± 0.026
CGAGGGAGTA | 0.993 ± 0.035
CGAGGGGATT | 1.25 ± 0.54
CGAGGGGTTC | 0.9908 ± 0.0044
CGAGGGGTTG | 1 ± 0.04
CGAGGGTAGT | 1.01 ± 0.025
CGAGGGTCTC | 1.01 ± 0.029
CGAGGTACTG | 1.01 ± 0.0034
CGAGGTAGCT | 1 ± 0.021
CGAGGTAGGG | 1.01 ± 0.073
CGAGGTGGCT | 1.01 ± 0.028
CGAGGTGGGA | 0.9972 ± 0.0025

Sequence | switch fluorescence ratio
CGAGTACTGT | 0.994 ± 0.025
CGAGTAGAGG | 1.02 ± 0.026
CGAGTAGTCA | 0.994 ± 0.018
CGAGTATGGG | 0.9859 ± 0.0011
CGAGTATTAC | 1.09 ± 0.04
CGAGTCCAGG | 6.48 ± 0.097
CGAGTCTTTG | 1.03 ± 0.059
CGAGTGGGTG | 0.996 ± 0.018
CGAGTGTCAG | 0.976 ± 0.028
CGAGTTATTG | 1.08 ± 0.094
CGAGTTCGTT | 1 ± 0.025
CGATAAAGAG | 1.02 ± 0.013
CGATAACGTC | 0.992 ± 0.011
CGATAATTTG | 0.994 ± 0.015
CGATACGATG | 0.995 ± 0.011
CGATACTTGA | 0.99 ± 0.038
CGATAGCAGC | 2.43 ± 0.52
CGATAGGGGG | 1.01 ± 0.022
CGATAGTTAG | 0.986 ± 0.044
CGATATAAGT | 1 ± 0.025
CGATATAGAC | 1.06 ± 0.013
CGATATCCAC | 1.07 ± 0.013
CGATCACCTG | 1.02 ± 0.063

Sequence | switch fluorescence ratio
CGATCCGGCG | 1.08 ± 0.16
CGATCCTATG | 0.969 ± 0.045
CGATCGGATG | 1.03 ± 0.023
CGATCTAGTA | 0.97 ± 0.015
CGATGAGGGT | 1.01 ± 0.029
CGATGGACGG | 1.01 ± 0.033
CGATGGGCTA | 1.02 ± 0.056
CGATGGGTGC | 0.946 ± 0.015
CGATGGTAGA | 1.03 ± 0.027
CGATGGTGGC | 1.073 ± 0.0067
CGATGGTGGG | 0.987 ± 0.0088
CGATGTCACG | 1 ± 0.033
CGATGTGCCC | 0.983 ± 0.024
CGATGTGCGG | 1.03 ± 0.062
CGATGTTGGG | 0.99 ± 0.018
CGATGTTTTC | 1.03 ± 0.073
CGATTAACTC | 1.03 ± 0.012
CGATTAGGGA | 1 ± 0.028
CGATTAGGTG | 1.193 ± 0.0052
